Reference: patent US12383631 (BRIGHT PEAK THERAPEUTICS, dated 2025)

T1: IL-18 receptor (IL-18Rα/IL-18Rβ) on cells (HEK-Blue IL18R reporter cells, NK-92, KG-1) (human, UniProt Q13478 19-541; O95256 20-599)
T1 sequence (looked up) 1: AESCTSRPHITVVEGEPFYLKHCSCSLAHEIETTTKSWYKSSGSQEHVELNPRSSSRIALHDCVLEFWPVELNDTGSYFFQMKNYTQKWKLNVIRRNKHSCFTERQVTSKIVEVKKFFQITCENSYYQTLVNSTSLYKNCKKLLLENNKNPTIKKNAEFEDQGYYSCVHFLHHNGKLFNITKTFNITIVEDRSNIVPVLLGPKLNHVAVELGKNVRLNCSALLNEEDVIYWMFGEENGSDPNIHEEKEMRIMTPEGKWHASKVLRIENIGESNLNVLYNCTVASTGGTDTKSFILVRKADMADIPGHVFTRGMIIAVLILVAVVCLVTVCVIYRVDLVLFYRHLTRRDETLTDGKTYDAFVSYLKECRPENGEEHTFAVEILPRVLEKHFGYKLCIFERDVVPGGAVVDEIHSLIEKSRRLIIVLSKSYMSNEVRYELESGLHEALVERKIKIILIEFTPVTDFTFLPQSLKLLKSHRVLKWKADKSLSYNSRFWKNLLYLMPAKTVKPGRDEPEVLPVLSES
T1 sequence (looked up) 2: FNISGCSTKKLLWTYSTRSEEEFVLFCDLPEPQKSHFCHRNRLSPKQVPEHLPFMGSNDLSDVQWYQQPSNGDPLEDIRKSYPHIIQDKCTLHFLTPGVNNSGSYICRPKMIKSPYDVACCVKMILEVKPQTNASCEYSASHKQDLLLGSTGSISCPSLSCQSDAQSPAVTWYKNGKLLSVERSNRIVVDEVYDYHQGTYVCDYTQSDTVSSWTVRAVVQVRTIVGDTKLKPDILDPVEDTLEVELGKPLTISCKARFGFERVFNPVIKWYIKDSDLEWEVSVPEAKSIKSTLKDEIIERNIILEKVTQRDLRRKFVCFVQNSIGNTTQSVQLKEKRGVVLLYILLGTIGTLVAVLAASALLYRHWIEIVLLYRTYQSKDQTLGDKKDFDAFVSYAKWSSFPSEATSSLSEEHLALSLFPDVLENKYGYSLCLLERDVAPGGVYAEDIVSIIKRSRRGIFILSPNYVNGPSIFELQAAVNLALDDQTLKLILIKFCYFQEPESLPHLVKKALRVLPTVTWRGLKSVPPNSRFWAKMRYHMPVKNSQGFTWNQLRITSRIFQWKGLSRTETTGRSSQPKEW

T2: human IL-18BP-His (human, UniProt O95998 31-194, limits assumed)
T2 construct: also called His-tagged human IL-18BP; not shown: His tag
T2 sequence (looked up): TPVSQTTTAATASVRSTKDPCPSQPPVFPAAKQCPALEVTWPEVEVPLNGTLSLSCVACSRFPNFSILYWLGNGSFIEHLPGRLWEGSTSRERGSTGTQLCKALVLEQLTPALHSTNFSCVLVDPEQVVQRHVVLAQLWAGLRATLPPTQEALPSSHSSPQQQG


What was measured:
[1] = molecular target: T1, IL-18 receptor (IL-18Rα/IL-18Rβ) on …; assay: cell-based or functional assay
human IL-18BP-His = molecular target: T2, human IL-18BP-His; assay: AlphaLISA of free IL-18BP
Method: The plate is incubated further for 1 hr at room temperature. Under subdued light, 12.5 µL of 2× streptavidin (SA) donor beads are pipetted into each well, and the wells are incubated with shaking for an additional 30 min at room temperature. The AlphaLisa signal is then measured on an Enspire plate reader with 680 and 615 nm as excitation and emission wavelengths, respectively. The dissociation constant (K_D) is calculated based on a variable slope, four parameter analysis using GraphPad PRISM software.

[2] = molecular target: T1, IL-18 receptor (IL-18Rα/IL-18Rβ) on …; assay: cell-based or functional assay; remark: listed apart in the source

Binder	EC50, IFNγ stimulation, NK92 cells [1]	Kd (human IL-18BP-His)	EC50, HEK-Blue IL18R reporter cells [2]
IL-18 polypeptide C153 (ligand, also called V11I, D37A, C38A, K53A, C76A, C127A) YFGKLESKLSIIRNLNDQVLFIDQGNRPLFEDMTDSAARDNAPRTIFIISMYADSQPRGMAVTISVKCEKISTLSAENKIISFKEMNPPDNIKDTKSDIIFFQRSVPGHDNKMQFESSSYEGYFLAAEKERDLFKLILKKEDELGDRSIMFTVQNED	175 pM	4550 pM	14.1 pM
IL-18 polypeptide C159 (ligand, also called V11I, C38A, K53A, C76A, H109A, C127A) YFGKLESKLSIIRNLNDQVLFIDQGNRPLFEDMTDSDARDNAPRTIFIISMYADSQPRGMAVTISVKCEKISTLSAENKIISFKEMNPPDNIKDTKSDIIFFQRSVPGADNKMQFESSSYEGYFLAAEKERDLFKLILKKEDELGDRSIMFTVQNED	123 pM	550 pM	19.5 pM
IL-18 polypeptide C157 (ligand, also called V11I, C38A, K53A, C76A, C127A, D132A) YFGKLESKLSIIRNLNDQVLFIDQGNRPLFEDMTDSDARDNAPRTIFIISMYADSQPRGMAVTISVKCEKISTLSAENKIISFKEMNPPDNIKDTKSDIIFFQRSVPGHDNKMQFESSSYEGYFLAAEKERALFKLILKKEDELGDRSIMFTVQNED	56 pM	13700 pM	1.95 pM
IL-18 polypeptide C161 (ligand, also called K8R, V11I, C38A, C76A, Q103E, C127A) YFGKLESRLSIIRNLNDQVLFIDQGNRPLFEDMTDSDARDNAPRTIFIISMYKDSQPRGMAVTISVKCEKISTLSAENKIISFKEMNPPDNIKDTKSDIIFFERSVPGHDNKMQFESSSYEGYFLAAEKERDLFKLILKKEDELGDRSIMFTVQNED	57 pM	60 pM	2.01 pM
IL-18 polypeptide C154 (ligand, also called V11I, E31A, D37A, C38A, K53A, C76A, C127A) YFGKLESKLSIIRNLNDQVLFIDQGNRPLFADMTDSAARDNAPRTIFIISMYADSQPRGMAVTISVKCEKISTLSAENKIISFKEMNPPDNIKDTKSDIIFFQRSVPGHDNKMQFESSSYEGYFLAAEKERDLFKLILKKEDELGDRSIMFTVQNED	62 pM	2120 pM	11.9 pM
IL-18 polypeptide C160 (ligand, also called V11I, C38A, K53A, C76A, D110A, C127A) YFGKLESKLSIIRNLNDQVLFIDQGNRPLFEDMTDSDARDNAPRTIFIISMYADSQPRGMAVTISVKCEKISTLSAENKIISFKEMNPPDNIKDTKSDIIFFQRSVPGHANKMQFESSSYEGYFLAAEKERDLFKLILKKEDELGDRSIMFTVQNED	28 pM	710 pM	2.02 pM
IL-18 polypeptide C168 (ligand, also called V11I, C38A, C76A, S105K, C127A) YFGKLESKLSIIRNLNDQVLFIDQGNRPLFEDMTDSDARDNAPRTIFIISMYKDSQPRGMAVTISVKCEKISTLSAENKIISFKEMNPPDNIKDTKSDIIFFQRKVPGHDNKMQFESSSYEGYFLAAEKERDLFKLILKKEDELGDRSIMFTVQNED	98 pM	50 pM	7.73 pM
IL-18 polypeptide C162 (ligand, also called K8E, V11I, C38A, C76A, Q103R, C127A) YFGKLESELSIIRNLNDQVLFIDQGNRPLFEDMTDSDARDNAPRTIFIISMYKDSQPRGMAVTISVKCEKISTLSAENKIISFKEMNPPDNIKDTKSDIIFFRRSVPGHDNKMQFESSSYEGYFLAAEKERDLFKLILKKEDELGDRSIMFTVQNED	61 pM	850 pM	2.3 pM

Results, then the binder that gave them:

EC50, IFNγ stimulation, NK92 cells [1]	Kd (human IL-18BP-His)	EC50, HEK-Blue IL18R reporter cells [2]	Binder
103 pM	40 pM	5.37 pM	IL-18 polypeptide C167 (ligand, also called V11I, C38A, C76A, S105I, C127A) YFGKLESKLSIIRNLNDQVLFIDQGNRPLFEDMTDSDARDNAPRTIFIISMYKDSQPRGMAVTISVKCEKISTLSAENKIISFKEMNPPDNIKDTKSDIIFFQRIVPGHDNKMQFESSSYEGYFLAAEKERDLFKLILKKEDELGDRSIMFTVQNED
98 pM	20 pM	4.73 pM	IL-18 polypeptide C166 (ligand, also called V11I, C38A, S55T, C76A, C127A) YFGKLESKLSIIRNLNDQVLFIDQGNRPLFEDMTDSDARDNAPRTIFIISMYKDTQPRGMAVTISVKCEKISTLSAENKIISFKEMNPPDNIKDTKSDIIFFQRSVPGHDNKMQFESSSYEGYFLAAEKERDLFKLILKKEDELGDRSIMFTVQNED
414 pM	80 pM	3.14 pM	IL-18 polypeptide C164 (ligand, also called V11I, C38A, S55H, C76A, C127A) YFGKLESKLSIIRNLNDQVLFIDQGNRPLFEDMTDSDARDNAPRTIFIISMYKDHQPRGMAVTISVKCEKISTLSAENKIISFKEMNPPDNIKDTKSDIIFFQRSVPGHDNKMQFESSSYEGYFLAAEKERDLFKLILKKEDELGDRSIMFTVQNED
93 pM	50 pM	1.5 pM	IL-18 polypeptide C163 (ligand, also called V11I, C38A, C76A, Q103K, C127A) YFGKLESKLSIIRNLNDQVLFIDQGNRPLFEDMTDSDARDNAPRTIFIISMYKDSQPRGMAVTISVKCEKISTLSAENKIISFKEMNPPDNIKDTKSDIIFFKRSVPGHDNKMQFESSSYEGYFLAAEKERDLFKLILKKEDELGDRSIMFTVQNED
558 pM	18500 pM	11.7 pM	IL-18 polypeptide C156 (ligand, also called V11I, C38A, N41A, K53A, C76A, C127A) YFGKLESKLSIIRNLNDQVLFIDQGNRPLFEDMTDSDARDAAPRTIFIISMYADSQPRGMAVTISVKCEKISTLSAENKIISFKEMNPPDNIKDTKSDIIFFQRSVPGHDNKMQFESSSYEGYFLAAEKERDLFKLILKKEDELGDRSIMFTVQNED
144 pM	822000 pM	0.79 pM	IL-18 polypeptide of SEQ ID NO: 42 (E06K, K53A, S55A, T63A) (ligand) YFGKLKSKLSVIRNLNDQVLFIDQGNRPLFEDMTDSDCRDNAPRTIFIISMYADAQPRGMAVAISVKCEKISTLSCENKIISFKEMNPPDNIKDTKSDIIFFQRSVPGHDNKMQFESSSYEGYFLACEKERDLFKLILKKEDELGDRSIMFTVQNED
67 pM	740 pM	0.52 pM	IL-18 polypeptide C155 (ligand, also called V11I, C38A, D40A, K53A, C76A, C127A) YFGKLESKLSIIRNLNDQVLFIDQGNRPLFEDMTDSDARANAPRTIFIISMYADSQPRGMAVTISVKCEKISTLSAENKIISFKEMNPPDNIKDTKSDIIFFQRSVPGHDNKMQFESSSYEGYFLAAEKERDLFKLILKKEDELGDRSIMFTVQNED
26.8 pM	340000 pM	1.77 pM	IL-18 polypeptide of SEQ ID NO: 50 (E06K, K53A, T63A) (ligand) YFGKLKSKLSVIRNLNDQVLFIDQGNRPLFEDMTDSDCRDNAPRTIFIISMYADSQPRGMAVAISVKCEKISTLSCENKIISFKEMNPPDNIKDTKSDIIFFQRSVPGHDNKMQFESSSYEGYFLACEKERDLFKLILKKEDELGDRSIMFTVQNED
73 pM	1240 pM	15.6 pM	IL-18 polypeptide C158 (ligand, also called V11I, C38A, K53A, C76A, G108A, C127A) YFGKLESKLSIIRNLNDQVLFIDQGNRPLFEDMTDSDARDNAPRTIFIISMYADSQPRGMAVTISVKCEKISTLSAENKIISFKEMNPPDNIKDTKSDIIFFQRSVPAHDNKMQFESSSYEGYFLAAEKERDLFKLILKKEDELGDRSIMFTVQNED
176 pM	150 pM	1.91 pM	IL-18 polypeptide C165 (ligand, also called V11I, C38A, S55R, C76A, C127A) YFGKLESKLSIIRNLNDQVLFIDQGNRPLFEDMTDSDARDNAPRTIFIISMYKDRQPRGMAVTISVKCEKISTLSAENKIISFKEMNPPDNIKDTKSDIIFFQRSVPGHDNKMQFESSSYEGYFLAAEKERDLFKLILKKEDELGDRSIMFTVQNED
